# T1: Biotin-FcγRIIB (human, UniProt P31994 43-217, limits assumed, biotin-labelled)
# T1 construct: Bought, biotin-labelled; used at 1 µg/ml for staining and sorting; also called human FcγRIIB; CD32b
# T1 sequence (looked up): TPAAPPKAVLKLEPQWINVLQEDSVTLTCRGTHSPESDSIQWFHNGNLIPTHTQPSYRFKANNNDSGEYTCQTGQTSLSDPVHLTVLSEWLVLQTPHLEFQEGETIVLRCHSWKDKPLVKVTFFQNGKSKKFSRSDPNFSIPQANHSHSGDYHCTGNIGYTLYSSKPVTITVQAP
# T2: Biotin-FcγRIIB (human, UniProt P31994 43-217, limits assumed, biotin label)
# T2 construct: Soluble labelled protein used to stain and sort the display cells; also called human FcγRIIB; CD32b
# T2 sequence (looked up): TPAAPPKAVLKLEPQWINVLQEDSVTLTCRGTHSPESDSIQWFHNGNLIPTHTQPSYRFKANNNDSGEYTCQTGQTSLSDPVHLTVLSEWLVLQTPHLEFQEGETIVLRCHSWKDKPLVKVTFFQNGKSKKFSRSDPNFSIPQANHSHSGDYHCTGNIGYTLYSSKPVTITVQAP
# Key:
# Biotin-FcγRIIB (human) [1] = biological target: Biotin-FcγRIIB (human) (UniProt P31994); experiment: magnetic sorting on biotin-FcγRIIB with unlabelled activating FcγRs, NGS; Library2
# Biotin-FcγRIIB (human) [2] = biological target: Biotin-FcγRIIB (human) (UniProt P31994); experiment: magnetic sorting on biotin-FcγRIIB with unlabelled activating FcγRs, NGS; Library4
# Biotin-FcγRIIB (human) [3] = biological target: Biotin-FcγRIIB (human) (UniProt P31994); experiment: magnetic sorting on biotin-FcγRIIB with unlabelled activating FcγRs, NGS; LibraryMix #3
# Biotin-FcγRIIB (human) [4] = biological target: Biotin-FcγRIIB (human) (UniProt P31994); experiment: magnetic sorting on biotin-FcγRIIB with unlabelled activating FcγRs, NGS; LibraryMix #4
# Biotin-FcγRIIB (human) [5] = biological target: Biotin-FcγRIIB (human) (UniProt P31994); experiment: NGS of 3T3 display library C2 flow-sorted for FcγRIIB binding
# Biotin-FcγRIIB (human) [6] = biological target: Biotin-FcγRIIB (human) (UniProt P31994); experiment: NGS of 3T3 display library Cmix flow-sorted for FcγRIIB binding
# Biotin-FcγRIIB (human) [7] = biological target: Biotin-FcγRIIB (human) (UniProt P31994); experiment: NGS of 3T3 display library IgG2_C01 flow-sorted for FcγRIIB binding
# Biotin-FcγRIIB (human) [8] = biological target: Biotin-FcγRIIB (human) (UniProt P31994); experiment: NGS of 3T3 display library IgG2_C02 flow-sorted for FcγRIIB binding
# [9] = biological target: Biotin-FcγRIIB (human FcγRIIB, Sino Biological) (human) (UniProt P31994); experiment: NGS after FACS sort of 3T3-displayed LibraryMix for biotin-FcγRIIB binding
# Biotin-FcγRIIB [10] = biological target: T1, Biotin-FcγRIIB; experiment: FACS sorting of displayed Fc library on biotin-FcγRIIB, NGS
# Biotin-FcγRIIB [11] = biological target: T1, Biotin-FcγRIIB; experiment: FACS sorting of displayed Fc library on biotin-FcγRIIB, NGS; reference S298R
# Biotin-FcγRIIB [12] = biological target: T2, Biotin-FcγRIIB; experiment: NGS of 3T3 display library IgG2_C02 flow-sorted for FcγRIIB binding
# Description: Then flow cytometry is used for sorting the cells with high affinity to FcγRIIB for two to three rounds. […] IgG2_C01 is a combined mutation (Type I) library having at most 1 mutation in each of the four regions of P233-V240, V266-P271, S298-T299, and G327-I332; IgG2_C02 is a cell library made by combining the combined mutation (Type II) libraries of four regions of P233-V240, V266-P271, S298-T299 and G327-I332 together and transferring it into 3T3 cells.
# Biotin-FcγRIIB [13] = biological target: T1, Biotin-FcγRIIB; experiment: FACS sorting of displayed Fc library on biotin-FcγRIIB, NGS; reference P271C
# Biotin-FcγRIIB [14] = biological target: T1, Biotin-FcγRIIB; experiment: FACS sorting of displayed Fc library on biotin-FcγRIIB, NGS; reference S267E
molecule,measurement,setting,value
human IgG2 anti-mouse CD40 surface displayed antibody (wild-type IgG2 Fc),Enrichment factor (percentage after sorting/percentage before sorting),Biotin-FcγRIIB (human) [1],0.83
same,Percentage after sorting/unbinding percentage,Biotin-FcγRIIB (human) [1],0.58
same,Percentage before sorting/unbinding percentage,Biotin-FcγRIIB (human) [1],0.7
same,Enrichment factor (percentage after sorting/percentage before sorting),Biotin-FcγRIIB (human) [2],0.88
same,Percentage after sorting/unbinding percentage,Biotin-FcγRIIB (human) [2],0.85
same,Percentage before sorting/unbinding percentage,Biotin-FcγRIIB (human) [2],0.97
same,Enrichment factor (percentage after sorting/percentage before sorting),Biotin-FcγRIIB (human) [3],1.13
same,Percentage after sorting/unbinding percentage,Biotin-FcγRIIB (human) [3],1.06
same,Percentage before sorting/unbinding percentage,Biotin-FcγRIIB (human) [3],0.94
same,Enrichment factor (percentage after sorting/percentage before sorting),Biotin-FcγRIIB (human) [4],0.94
same,Percentage after sorting/unbinding percentage,Biotin-FcγRIIB (human) [4],0.95
same,Percentage before sorting/unbinding percentage,Biotin-FcγRIIB (human) [4],1.01
"human IgG2 anti-mouse CD40 surface displayed antibody, wild-type Fc",percentage after 1st sorting,Biotin-FcγRIIB (human) [5],2.51%
same,percentage after 2nd sorting,Biotin-FcγRIIB (human) [5],5.25%
same,percentage after 3rd sorting,Biotin-FcγRIIB (human) [5],12.6%
same,percentage before sorting,Biotin-FcγRIIB (human) [5],8.97%
same,percentage after 1st sorting,Biotin-FcγRIIB (human) [6],1.32%
same,percentage after 2nd sorting,Biotin-FcγRIIB (human) [6],1.03%
same,percentage after 3rd sorting,Biotin-FcγRIIB (human) [6],0.4%
same,percentage before sorting,Biotin-FcγRIIB (human) [6],1.07%
same,percentage after 1st sorting,Biotin-FcγRIIB (human) [7],61.6%
same,percentage after 2nd sorting,Biotin-FcγRIIB (human) [7],54.2%
same,percentage before sorting,Biotin-FcγRIIB (human) [7],63.8%
same,percentage after 1st sorting,Biotin-FcγRIIB (human) [8],58.4%
same,percentage after 2nd sorting,Biotin-FcγRIIB (human) [8],47.8%
same,percentage before sorting,Biotin-FcγRIIB (human) [8],56.6%
"human IgG2 anti-mouse CD40 surface displayed antibody, P271G/G236V",Enrichment factor (percentage after sorting/percentage before sorting),[9],10.3
same,Increased factor (enrichment factor/wild-type enrichment factor),[9],13.7
"human IgG2 anti-mouse CD40 surface displayed antibody, Fc mutant P271A/S298R (antibody, name in EU numbering, as m1; positions are Eu numbers; copies: 2 + 2) light chain (with the P2A rest): DTVLTQSPALAVSPGERVTISCRASDSVSTLMHWYQQKPGQQPKLLIYLASHLESGVPARFSGSGSGTDFTLTIDPVEADDTATYYCQQSWNDPWTFGGGTKLELKRTVAAPSVFIFPPSDEQLKSGTASVVCLLNNFYPREAKVQWKVDNALQSGNSQESVTEQDSKDSTYSLSSTLTLSKADYEKHKVYACEVTHQGLSSPVTKSFNRGECGSGATNFSLLKQAGDVEENPG heavy chain: EVQLVESDGGLVQPGRSLKLPCAASGFTFSDYYMAWVRQAPTKGLEWVASISYDGSSTYYRDSVKGRFTISRDNAKSTLYLQMDSLRSEDTATYYCGRHSSYFDYWGQGVMVTVSSASTKGPSVFPLAPCSRSTSESTAALGCLVKDYFPEPVTVSWNSGALTSGVHTFPAVLQSSGLYSLSSVVTVPSSNFGTQTYTCNVDHKPSNTKVDKTVERKCCVECPPCPAPPVAGPSVFLFPPKPKDTLMISRTPEVTCVVVDVSHEDAEVQFNWYVDGVEVHNAKTKPREEQFNRTFRVVSVLTVVHQDWLNGKEYKCKVSNKGLPAPIEKTISKTKGQPREPQVYTLPPSREEMTKNQVSLTCLVKGFYPSDIAVEWESNGQPENNYKTTPPMLDSDGSFFLYSKLTVDKSRWQQGNVFSCSVMHEALHNHYTQKSLSLSPGKLEPPPSTVSNMATVAVLVVLGAAIVTGAVVAFVMKMRRRNTGGKGGDYALAPGSQTSDLSLPDCKVMVHDPHSLA",Enrichment factor (after/before sorting),Biotin-FcγRIIB [10],2.45
same,Increased factor a (enrichment factor/wild-type enrichment factor),Biotin-FcγRIIB [10],3.27
same,Increased factor 2 c Site 2 (combined/point mutation),Biotin-FcγRIIB [11],4.2
"human IgG2 anti-mouse CD40 surface displayed antibody, S267E/H268S/E269D (antibody, name in EU numbering, As m1 with the Fc mutations) light chain (with the P2A rest): DTVLTQSPALAVSPGERVTISCRASDSVSTLMHWYQQKPGQQPKLLIYLASHLESGVPARFSGSGSGTDFTLTIDPVEADDTATYYCQQSWNDPWTFGGGTKLELKRTVAAPSVFIFPPSDEQLKSGTASVVCLLNNFYPREAKVQWKVDNALQSGNSQESVTEQDSKDSTYSLSSTLTLSKADYEKHKVYACEVTHQGLSSPVTKSFNRGECGSGATNFSLLKQAGDVEENPG heavy chain: EVQLVESDGGLVQPGRSLKLPCAASGFTFSDYYMAWVRQAPTKGLEWVASISYDGSSTYYRDSVKGRFTISRDNAKSTLYLQMDSLRSEDTATYYCGRHSSYFDYWGQGVMVTVSSASTKGPSVFPLAPCSRSTSESTAALGCLVKDYFPEPVTVSWNSGALTSGVHTFPAVLQSSGLYSLSSVVTVPSSNFGTQTYTCNVDHKPSNTKVDKTVERKCCVECPPCPAPPVAGPSVFLFPPKPKDTLMISRTPEVTCVVVDVESDDPEVQFNWYVDGVEVHNAKTKPREEQFNSTFRVVSVLTVVHQDWLNGKEYKCKVSNKGLPAPIEKTISKTKGQPREPQVYTLPPSREEMTKNQVSLTCLVKGFYPSDIAVEWESNGQPENNYKTTPPMLDSDGSFFLYSKLTVDKSRWQQGNVFSCSVMHEALHNHYTQKSLSLSPGKLEPPPSTVSNMATVAVLVVLGAAIVTGAVVAFVMKMRRRNTGGKGGDYALAPGSQTSDLSLPDCKVMVHDPHSLA","enrichment factor, percentage after 1st sorting/percentage before sorting",Biotin-FcγRIIB [12],80.5 ratio
same,"enrichment factor, percentage after 2nd sorting/percentage after 1st sorting",Biotin-FcγRIIB [12],83.7 ratio
same,"enrichment factor, percentage after 2nd sorting/percentage before sorting",Biotin-FcγRIIB [12],6730 ratio
same,"increased factor, mutant enrichment factor/wild-type enrichment factor",Biotin-FcγRIIB [12],7970 ratio
"human IgG2 anti-mouse CD40 surface displayed antibody, Fc mutant V266A/P271C (antibody, name in EU numbering, as m1; positions are Eu numbers; copies: 2 + 2) light chain (with the P2A rest): DTVLTQSPALAVSPGERVTISCRASDSVSTLMHWYQQKPGQQPKLLIYLASHLESGVPARFSGSGSGTDFTLTIDPVEADDTATYYCQQSWNDPWTFGGGTKLELKRTVAAPSVFIFPPSDEQLKSGTASVVCLLNNFYPREAKVQWKVDNALQSGNSQESVTEQDSKDSTYSLSSTLTLSKADYEKHKVYACEVTHQGLSSPVTKSFNRGECGSGATNFSLLKQAGDVEENPG heavy chain: EVQLVESDGGLVQPGRSLKLPCAASGFTFSDYYMAWVRQAPTKGLEWVASISYDGSSTYYRDSVKGRFTISRDNAKSTLYLQMDSLRSEDTATYYCGRHSSYFDYWGQGVMVTVSSASTKGPSVFPLAPCSRSTSESTAALGCLVKDYFPEPVTVSWNSGALTSGVHTFPAVLQSSGLYSLSSVVTVPSSNFGTQTYTCNVDHKPSNTKVDKTVERKCCVECPPCPAPPVAGPSVFLFPPKPKDTLMISRTPEVTCVVVDASHEDCEVQFNWYVDGVEVHNAKTKPREEQFNSTFRVVSVLTVVHQDWLNGKEYKCKVSNKGLPAPIEKTISKTKGQPREPQVYTLPPSREEMTKNQVSLTCLVKGFYPSDIAVEWESNGQPENNYKTTPPMLDSDGSFFLYSKLTVDKSRWQQGNVFSCSVMHEALHNHYTQKSLSLSPGKLEPPPSTVSNMATVAVLVVLGAAIVTGAVVAFVMKMRRRNTGGKGGDYALAPGSQTSDLSLPDCKVMVHDPHSLA",Enrichment factor (after/before sorting),Biotin-FcγRIIB [10],42.2
same,Increased factor a (enrichment factor/wild-type enrichment factor),Biotin-FcγRIIB [10],73.5
same,Increased factor 2 c Site 2 (combined/point mutation),Biotin-FcγRIIB [13],2.5
"human IgG2 anti-mouse CD40 surface displayed antibody, Fc mutant S267E/P271C (antibody, name in EU numbering, as m1; positions are Eu numbers; copies: 2 + 2) light chain (with the P2A rest): DTVLTQSPALAVSPGERVTISCRASDSVSTLMHWYQQKPGQQPKLLIYLASHLESGVPARFSGSGSGTDFTLTIDPVEADDTATYYCQQSWNDPWTFGGGTKLELKRTVAAPSVFIFPPSDEQLKSGTASVVCLLNNFYPREAKVQWKVDNALQSGNSQESVTEQDSKDSTYSLSSTLTLSKADYEKHKVYACEVTHQGLSSPVTKSFNRGECGSGATNFSLLKQAGDVEENPG heavy chain: EVQLVESDGGLVQPGRSLKLPCAASGFTFSDYYMAWVRQAPTKGLEWVASISYDGSSTYYRDSVKGRFTISRDNAKSTLYLQMDSLRSEDTATYYCGRHSSYFDYWGQGVMVTVSSASTKGPSVFPLAPCSRSTSESTAALGCLVKDYFPEPVTVSWNSGALTSGVHTFPAVLQSSGLYSLSSVVTVPSSNFGTQTYTCNVDHKPSNTKVDKTVERKCCVECPPCPAPPVAGPSVFLFPPKPKDTLMISRTPEVTCVVVDVEHEDCEVQFNWYVDGVEVHNAKTKPREEQFNSTFRVVSVLTVVHQDWLNGKEYKCKVSNKGLPAPIEKTISKTKGQPREPQVYTLPPSREEMTKNQVSLTCLVKGFYPSDIAVEWESNGQPENNYKTTPPMLDSDGSFFLYSKLTVDKSRWQQGNVFSCSVMHEALHNHYTQKSLSLSPGKLEPPPSTVSNMATVAVLVVLGAAIVTGAVVAFVMKMRRRNTGGKGGDYALAPGSQTSDLSLPDCKVMVHDPHSLA",Enrichment factor (after/before sorting),Biotin-FcγRIIB [10],1000
same,Increased factor a (enrichment factor/wild-type enrichment factor),Biotin-FcγRIIB [10],1740
same,Increased factor 2 c Site 2 (combined/point mutation),Biotin-FcγRIIB [13],58.4
same,Increased factor 2 c Site 1 (combined/point mutation),Biotin-FcγRIIB [14],61.2

# Source: patent US20230220042A1 (SHANGHAI JIAO TONG UNIVERSITY SCHOOL OF MEDICINE, published 2023)
